The results in this text go back to US20110223107A1.

The chains are these.
T1: Fc-fused truncated mutant of KAAG1 spanning amino acids 1-35 (human)
T1 sequence: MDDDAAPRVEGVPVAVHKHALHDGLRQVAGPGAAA

B1: A9 (Fab, V domains shown)
VH: QVQVQQPGAELVRPGASVTLSCKASGYIFTDYEVHWVRQRPVHGLEWIGVIDPETGDTAYNQKFKGKATLTADKSSSTAYMELSSLTAEDSAVYYCIGYADYWGQGTTLTVSS
VL: DIVMTQSPSSLAMSLGQKVTMSCKSSQSLLNSNNQLNYLAWYQQKPGQSPKLLVYFASTRKSGVPDRFIGSGSGTDFTLTITSVQAEDLADYFCQQHFNTPLTFGAGTKLELK
B2: 3D3 mouse anti-KAAG1 Fab (Fab, V domains shown)
VH: EVQLQQSVAELVRPGASVTLSCKASGYIFTDYEIHWVKQTPVHGLEWIGVIDPETGNTAFNQKFKGKATLTADISSSTAYMELSSLTSEDSAVYYCMGYSDYWGQGTTLTVSS
VL: DIVMTQSPSSLAVSIGQKVTMNCKSSQSLLNSNFQKNFLAWYQQKPGQSPKLLIYFASTRESSIPDRFIGSGSGTDFTLTISSVQAEDLADYFCQQHYSTPLTFGAGTKLELK
B3: G12 (Fab, V domains shown)
VH: EVQLQQSVAELVRPGASVTVSCKASGYIFTDYEIHWVKQTPAHGLEWIGVIDPETGNTAFNQKFKGKATLTADISSSTAYMELSSLTSEDSAVYYCMGYSDYWGQGTTLTVSS
VL: DIVMTQSPKFMSTSVGDRVSITCKASQDVGTAVAWYQQKPGQSPELLIYWTSTRHTGVPDRFSGSGSGTDFTLTISSVQAEDLADYFCQQHYSIPLTFGAGTKLELR
B4: Fab of well C2 (Omniclonal AL0003Z1 plate) (Fab, V domains shown)
VH: DVQLQESGPDLVKPSQSLSLTCTVTGFSITSGYGWHWIRQFPGNKLEWMGYISFNGDSNYNPSLKSRISITRDTSKNQFFLQLNSVTSEDTATYYCASSYDGLFAYWGQGPLVTVSA
VL: DIQMTQSPSSMYASLGERVTLTCKASQDIHNYLNWFQQKPGKSPKTLIHRANRLVAGVPSRFSGSGSGQDYSLTISSLEYEDLGIYYCLQYDAFPLTFGAGTKLELK
B5: Fab of well D1 (Omniclonal AL0003Z1 plate) (Fab, V domains shown)
VH: EVQLQESGPDLVKPSQSLSLTCTVTGFSITSGYGWHWIRQFPGDKLEWMGYISFNGDYNYNPSLKSRISITRDTSKNQFFLQLSSVTTEDTATYYCASSYDGLFAYWGQGTLVTVSA
VL: DIKMTQSPSSMYASLGERVTITCKASQDIHTYLNWFQQKPGKSPETLIYRANRLVDGVPSRFSGSGSGQDYSLTISSLEYEDMGIYYCLQYDEFPLTFGAGTKLELK
B6: 3C4 mouse anti-KAAG1 Fab (Fab, V domains shown)
VH: EVQLQESGPDLVKPSQSLSLTCTVTGFSITSGYGWHWIRQFPGNKLEWMGYINYDGHNDYNPSLKSRISITQDTSKNQFFLQLNSVTTEDTATYYCASSYDGLFAYWGQGTLVTVSA
VL: DIVMSQSPSSMYASLGERVTITCKASQDIHNFLNWFQQKPGKSPKTLIFRANRLVDGVPSRFSGSGSGQDYSLTISSLEFEDLGIYSCLQYDEIPLTFGAGTKLELR
B7: Fab of well E10 (Omniclonal AL0003Z1 plate) (Fab, V domains shown)
VH: EVQLQQSGPELVKPGASVKISCKASGDTFTDYYMNWVKQSHGKSLEWIGDINPNYGGITYNQKFKGKATLTVDTSSSTAYMELRGLTSEDSAVYYCQAYYRNSDYWGQGTTLTVSS
VL: DIVMTQAAPSVPVTPGESVSISCRSSKSLLHSNGNTYLYWFLQRPGQSPQLLIYRMSNLASGVPDRFSGSGSGTAFTLRISRVEAEDVGVYYCMQHLEYPYTFGGGTKLEIK

One assay addresses Fc-0447 1-60 (human) (UniProt Q9UBP8). The assay is described as follows: ELISA. On the technique in general: ELISA stands for enzyme-linked immunosorbent assay.
In the case of B1, the OD450 worked out at 2.29.

The molecule B2 registered an OD450 of 1.33.

As to B3, the OD450 was found to be 1.52.

Turning to B4, the OD450 is 0.48.

The molecule B5 had an OD450 of 0.27.

Consider B6, for which the OD450 amounted to 0.57.

A further assay deals with T1, Fc-fused truncated mutant of KAAG1 spanning amino acids 1-35 (human). The assay is described as follows: ELISA.
As to B7, the OD450 is 0.33.
